From paper PMC2746283, “BtubA-BtubB Heterodimer Is an Essential Intermediate in Protofilament Assembly” (PLoS ONE, 2009)
Numbering of substitutions follows the chain as printed. Names may count otherwise.

B1: BtubB, wild type (natural protein)
chain: VREILSIHVGQCGNQIADSFWRLALREHGLTEAGTLKEGSNAAANSNMEVFFHKVRDGKYVPRAVLVDLEPGVIARIEGGDMSQLFDESSIVRKIPGAANNWARGYNVEGEKVIDQIMNVIDSAVEKTKGLQGFLMTHSIGGGSGSGLGSLILERLRQAYPKKRIFTFSVVPSPLISDSAVEPYNAILTLQRILDNADGAVLLDNEALFRIAKAKLNRSPNYMDLNNIIALIVSSVTASLRFPGKLNTDLSEFVTNLVPFPGNHFLTASFAPMRGAGQEGQVRTNFPDLARETFAQDNFTAAIDWQQGVYLAASALFRGDVKAKDVDENMATIRKSLNYASYMPASGGLKLGYAETAPEGFASSGLALVNHTGIAAVFERLIAQFDIMFDNHAYTHWYENAGVSRDMMAKARNQIATLAQSYRDAS
notes: BtubB, bacterial tubulin-like protein of Prosthecobacter; the species is printed only for BtubA (P. dejongeii); also called B-wt; BtubB WT; source: E. coli, purified as described previously [3], with an added Sephacryl HR-100 column step; not shown: His tag, N-terminal, kept
B2: BtubB-D249K (natural protein)
chain: B1 chain with D249K
notes: BtubB of Prosthecobacter (species printed only for BtubA: P. dejongeii) with the point mutation D249K; The running text twice calls it BtubA-D249K; also called between-dimer mutant on the bottom of BtubB; source: E. coli, purified as described previously [3], with an added Sephacryl HR-100 column step; not shown: His tag, N-terminal, kept
B3: BtubB-N100E (natural protein)
chain: B1 chain with N100E
notes: BtubB of Prosthecobacter (species printed only for BtubA: P. dejongeii) with the point mutation N100E; also called within-dimer mutant of BtubB; source: E. coli, purified as described previously [3], with an added Sephacryl HR-100 column step; not shown: His tag, N-terminal, kept
B4: BtubA-V179K (natural protein, P. dejongeii)
chain: MKVNNTIVVSIGQAGNQIAASFWKTVCLEHGIDPLTGQTAPGVAPRGNWSSFFSKLGESSSGSYVPRAIMVDLEPSVIDNVKATSGSLFNPANLISRTEGAGGNFAVGYLGAGREVLPEVMSRLDYEIDKCDNVGGIIVLHAIGGGTGSGFGALLIESLKEKYGEIPVLSCAVLPSPQKSSVVTEPYNTVFALNTLRRSADACLIFDNEALFDLAHRKWNIESPTVDDLNLLITEALAGITASMRFSGFLTVEITLRELLTNLVPQPSLHFLMCAFAPLTPPDRSKFEELGIEEMIKSLFDNGSVFAACSPMEGRFLSTAVLYRGIMEDKPLADAALAAMREKLPLTYWIPTAFKIGYVEQPGISHRKSMVLLANNTEIARVLDRICHNFDKLWQRKAFANWYLNEGMSEEQINVLRASAQELVQSYQVAEESGAKAKVQDSAGDTGMRAAAAGVSDDARGSMSLRDLVDRRR
B5: BtubA, wild type (natural protein, P. dejongeii)
chain: B4 chain with K179V
B6: BtubA-E258K (natural protein, P. dejongeii)
chain: B4 chain with K179V, E258K

What was measured:
[1] = target: B5; test: AUC; sedimentation equilibrium of BtubA + BtubB mixtures, 20°C, 10,000-14,000 rpm, HMK buffer (50 mM Hepes, 5 mM MgAc, 350 mM KAc, 1 mM EGTA, pH 7.7), no GTP; molar ratios 1:4 to 4:1, each protein 8 to 32 µM; global fit to a monomer-dimer model (HeteroAnalysis); settings: both partners purified
[2] = target: B4; test: as above; settings: both partners purified
[3] = target: B6; test: as above; settings: both partners purified
[4] = target: B1; test: cell-based or functional assay
[5] = target: B2; test: cell-based or functional assay
[6] = target: B3; test: cell-based or functional assay

B1 showed a Kd [1] of 7.3 µM.

In the case of B2, the Kd [2] is reported as 3.2 µM.

In the case of B3, the Kd [3] is reported as 61 µM.

For B4, the “GTPase activity of the 1:1 mixture, per BtubB (GTP regeneration, coupled NADH assay, ∼29°C)” value [4] was 0.072 GTP min^−1 Btub^−1 and the “GTPase activity of the 1:1 mixture, per BtubB (GTP regeneration, coupled NADH assay, ∼29°C)” value [5] was 0.079 GTP min^−1 Btub^−1.

With B5 the “GTPase activity of the 1:1 mixture, per BtubB (GTP regeneration, coupled NADH assay, ∼29°C)” value [5] was 0.077 GTP min^−1 Btub^−1.

B6 was tested, and the “GTPase activity of the 1:1 mixture, per BtubB (GTP regeneration, coupled NADH assay, ∼29°C)” value [4] was 0.088 GTP min^−1 Btub^−1 and the “GTPase activity of the 1:1 mixture, per BtubB (GTP regeneration, coupled NADH assay, ∼29°C)” value [6] was 0.098 GTP min^−1 Btub^−1.
